Substitutions are numbered along the chain they refer to.
B1: VM1000 (antibody, V domains shown)
VH: QVQLVQSGAEVKKPGASVKVSCKASGYVFTSYWLHWIRQSPSRGLEWLGYINPRNDYTEYNRIFKGRLTISKDTSKNQVVLTMTNMDPVDTATYYCARRGITTFYWGQG
VL: EIVLTQSPATLSLSPGERATLSCKSSQSVLYSAVEKNYLAWYQQKPGKAPKLLIYWASTRERGVPSRFSGSGSGTDFTFTISSLQPEDIATYYCKQYLSSWTFGQG
notes: Humanized antibody with human constant region; also called anti-CD22 Mab clone VM1000
B2: VM1011 (antibody, V domains shown)
VH: QVQLQESGPGLVKPSQTLSLTCTVSGYVFTSYWLHWIRQPPGKGLEWIGYINPRNDYTEYNRIFKGRVTITADKSTSTAYMELSSLRSEDTAVYYCARRGITTFYWGQG
VL: B1 VL with K48Q, K51R, V64I, S66D, F79L, S83R, Q85E, I89F, T91V
notes: Humanized antibody with human constant region; also called anti-CD22 Mab clone VM1011
B3: VM1002 (antibody, V domains shown)
VH: EVQLVQSGAEVKKPGESLRISCKGSGYVFTSYWLHWVRQAPGQGLEWMGYINPRNDYTEYNRIFKGRVTITADKSTSTAYMELSSLRSEDTAVYYCARRGITTFYWGQG
VL: B1 VL with K48Q, K51R, V64I, S66D, F79L, S83R, Q85E, I89F, T91V
notes: Humanized antibody with human constant region; also called anti-CD22 Mab clone VM1002
B4: VM1004 (antibody, V domains shown)
VH: EVQLVQSGAEVKKPGATVKISCKVSGYVFTSYWLHWIRQSPSRGLEWLGYINPRNDYTEYNRIFKGRFVFSLDTSVSTAYLQICSLKAEDTAVYYCARRGITTFYWGQG
VL: B1 VL with V64I, S66D, F79L, S83R, Q85E, I89F, T91V
notes: Humanized antibody with human constant region; also called anti-CD22 Mab clone VM1004
B5: VM1003 (antibody, V domains shown)
VH: B4 VH
VL: B1 VL with K48Q, K51R, V64I, S66D, F79L, S83R, Q85E, I89F, T91V
notes: Humanized antibody with human constant region; also called anti-CD22 Mab clone VM1003
B6: VM1001 (antibody, V domains shown)
VH: B1 VH
VL: B1 VL with K48Q, K51R, V64I, S66D, F79L, S83R, Q85E, I89F, T91V
notes: Humanized antibody with human constant region; also called anti-CD22 Mab clone VM1001
B7: VM1006 (antibody, V domains shown)
VH: B4 VH with E1Q, T17S, I20V, V24A
VL: DIQMTQSPSSLSASVGDRVTITCKSSQSVLYSAVEKNYLAWYQQKPGKAPKLLIYWASTRERGIPDRFSGSGSGTDFTLTISRLEPEDFAVYYCKQYLSSWTFGQG
notes: Humanized antibody with human constant region; also called anti-CD22 Mab clone VM1006
B8: VM1007 (antibody, V domains shown)
VH: B3 VH with E1Q, E16A, L18V, R19K, I20V, G24A, P41R, G44R, M48I
VL: B7 VL with D1A, M4L, I64V, D66S, L79F, R83S, P86A, F89A, V91T
notes: Humanized antibody with human constant region; also called anti-CD22 Mab clone VM1007

These binders were tested against T1, CD22 protein expressed on the surface of Daudi cells (human, UniProt P20273 20-847) (assay: cell-based or functional assay).
T1 sequence (looked up): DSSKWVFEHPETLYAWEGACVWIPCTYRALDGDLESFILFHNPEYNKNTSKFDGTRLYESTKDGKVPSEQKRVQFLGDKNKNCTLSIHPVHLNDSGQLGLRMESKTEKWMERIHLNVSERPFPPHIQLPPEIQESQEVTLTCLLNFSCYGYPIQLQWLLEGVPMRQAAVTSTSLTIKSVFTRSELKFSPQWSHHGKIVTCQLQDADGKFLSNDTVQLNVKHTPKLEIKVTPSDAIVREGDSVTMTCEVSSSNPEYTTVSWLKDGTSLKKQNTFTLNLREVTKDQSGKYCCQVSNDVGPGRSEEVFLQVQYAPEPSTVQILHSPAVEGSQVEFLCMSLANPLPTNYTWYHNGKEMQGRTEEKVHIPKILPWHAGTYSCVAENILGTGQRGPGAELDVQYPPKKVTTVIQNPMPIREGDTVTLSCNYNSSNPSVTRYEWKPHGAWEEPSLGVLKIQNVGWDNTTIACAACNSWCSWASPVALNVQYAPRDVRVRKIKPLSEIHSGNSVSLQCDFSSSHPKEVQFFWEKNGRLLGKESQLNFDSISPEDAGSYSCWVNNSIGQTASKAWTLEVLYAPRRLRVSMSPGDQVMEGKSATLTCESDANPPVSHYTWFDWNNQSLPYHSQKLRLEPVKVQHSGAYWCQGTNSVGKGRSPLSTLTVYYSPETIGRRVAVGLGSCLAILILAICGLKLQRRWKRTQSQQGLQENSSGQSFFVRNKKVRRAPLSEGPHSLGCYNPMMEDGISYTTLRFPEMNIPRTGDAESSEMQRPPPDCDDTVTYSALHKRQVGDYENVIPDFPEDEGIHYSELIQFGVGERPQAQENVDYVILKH
With B1 the “Daudi Internalization by FACS, % Shift” value was 85.9%. With B2 the “Daudi Internalization by FACS, % Shift” value was 87.1%. B3 was tested, and the “Daudi Internalization by FACS, % Shift” value was 84.6%. With B4 the “Daudi Internalization by FACS, % Shift” value was 87.1%. In the case of B5, the “Daudi Internalization by FACS, % Shift” value is reported as 70.8%. In the case of B6, the “Daudi Internalization by FACS, % Shift” value is reported as 86.4%. With B7 the “Daudi Internalization by FACS, % Shift” value was 88.3%. In the case of B8, the “Daudi Internalization by FACS, % Shift” value is reported as 85%.

The binders below were run against T1, CD22 protein expressed on the surface … (assay: confocal immunofluorescence, FITC-labelled antibody on Daudi cells).
Procedure: Selected antiCD22 selected anti-CD22 Mab clones VM1000, VM1001, VM1002, VM1003, VM1004, VM1005, VM1006, VM1007, VM1008, VM1009, VM1010, VM1011, VM1012, VM1013, VM1014, and VM1015 of the invention were directly conjugated to F1TC using the Zenon labeling complex (Molecular Probes) using the manufacturer's recommended procedures. Approximately 1×10e7 Daudi cells were resuspended in PBS containing 5 ug/ml labeled anti-CD22 antibody and incubated for 45 minutes on ice. Cells then washed twice in PBS-FBS solution at 0 C. Cells were then incubated in RPMI 1640 media containing 10% FBS for varying periods at 37 C, harvested and washed in PBS at 0 C. The cells were then briefly fixed in 4% paraformaldehyde solution for 5 min at room temperature, then washed in PBS containing 0.05% Triton X-100. Cell pellets were collected by centrifugation and resupended in a minimal volume of FBS neat, and then applied to glass microscope slides. Prior to analysis, slides were treated with mounting fluid containing the nuclear stain DAPI, then coverslips were applied. Confocal images were recorded using an ACAS Ultima confocal microscope (Meridian Instruments, Inc., Okemos, Mich.) and represent 1-μm sections through the center of a focal plane using a 100× oil immersion objective.
The Anti-CD22 monoclonal antibodies selected clones VM1000, VM1001, VM1002, VM1003, VM1004, VM1005, VM1006, VM1007, VM1008, VM1009, VM1010, VM1011, VM1012, VM1013, VM1014, and VM1015 of the invention were analysed for their ability to be rapidly internalized into the intracellular compartment as judged by immunoflourescent signal on the cell surface versus the intracellular endo cytotic compartment. The antibodies of the invention were compared to BA006H, and humanized version of the murine monoclonal antibody LL2. In this example, FIG. 21A, the anti-CD22 antibodies of the invention bind to CD22 protein expressed on the surface of Daudi cells by approximately 20-fold compared to BA006H as judged by relative mean fluorescence (RMF), and are virtually completely internalized within the cell with 90 minutes, localizing predominantly to within the perinuclear golgi apparatus and associated lysozomes. Shown in FIG. 21B is a chart of the RMF surface binding values obtained in this manner for individual anti-CD22 antibodies of the invention.
With B1 the “fold surface binding by relative mean fluorescence (RMF) compared to BA006H” value was about 20 fold. In the case of B2, the “fold surface binding by relative mean fluorescence (RMF) compared to BA006H” value is reported as about 20 fold. With B3 the “fold surface binding by relative mean fluorescence (RMF) compared to BA006H” value was about 20 fold. With B4 the “fold surface binding by relative mean fluorescence (RMF) compared to BA006H” value was about 20 fold. With B5 the “fold surface binding by relative mean fluorescence (RMF) compared to BA006H” value was about 20 fold. B6 was tested, and the “fold surface binding by relative mean fluorescence (RMF) compared to BA006H” value was about 20 fold. For B7, the “fold surface binding by relative mean fluorescence (RMF) compared to BA006H” value was about 20 fold. For B8, the “fold surface binding by relative mean fluorescence (RMF) compared to BA006H” value was about 20 fold.

The binders below were run against T2, recombinant CD22 extracellular domain (assay: The sheet does not state the method. The column 'KD (nM)' stands beside the confocal data. The values largely repeat FIGURE 18 (SPR on recombinant CD22 extracellular domain), so the target form is taken from there.).
T2 construct: Kept apart from m18, which is cell-surface CD22; also called CD22 (analyte in the BIAcore runs); CD22 ECD
Procedure: BIAcore 3000, GE Healthcare was used to determine binding curves and kinetic parameters. An anti-human Fc (1.8 mg/ml) was diluted to a concentration of 50 ug/ml in NaOAc buffer (10 mM, pH 4.8) and coupled to the carboxymethylated dextran matrix of a CM-5 sensor chip using the manufacturer's amine-coupling chemistry as described in the BIAcore systems manual. Using the surface preparation wizard aiming for 10000RU, the carboxyl groups on the sensor surfaces were first activated with NHS/EDC followed by the addition of the anti-human Fc. The remaining activated groups were blocked by the injection of 1M ethanolamine. Each of the flow cells was coupled individually. Employing these conditions, the four flow cell surfaces containing 7554-9571 RU of anti-human Fc were prepared. In preliminary experiments, it was determine that three injections (15 ul at 30 ul/min) 100 mM H₃PO₄/0.05% CHAPS would efficiently remove the bound immunoglobulin and preserve the binding capacity of the immobilized anti-human Fc.
Experiments were performed on the BIAcore 3000 at 25° C. and a flow rate of 30 ul/min. The antibody candidate was dissolved in HBS (10 mM HEPES with 0.15M NaCl, 3.4 mM EDTA, and 0.05% surfactant P20 at pH 7.4) at 5 ug/ml. The analyte, CD22, was dissolved in HBS at 0.25, 0.125, 0.062, 0.031 and 0.015 ug/ml. 3*30 ul of 5 ug/ml of antibody BA001 was flowed over its respective flow cell followed by injections of 240 ul of each CD22 concentration at 30 ul/min (association phase) and an uninterrupted 1200 seconds of buffer flow (dissociation phase). The surface of the chip was regenerated by three sequential injections of 15 ul each with 100 m M H₃PO₄/0.05% CHAPS. The injections of HBS serve as a reference (blank sensogram) for the subtraction of bulk refractive indices for analysis. Using the 1:1 model in BIAevaluation 4.1, both a local fit and global fit was done for both dissociation (kd, [s−1] and association (ka, [M⁻¹s⁻¹]) and the dissociation constant (KD, [M]) calculated (kd/ka).
For B1, the Kd was 0.5 nM. With B3 the Kd was 0.33 nM. B4 gave a Kd of 0.8 nM. B5 was tested, and the Kd was 0.34 nM. With B6 the Kd was 0.22 nM. Binder B8 has a Kd of 1 nM.

Reference: patent US20150086562A1 (BIOATLA, published 2015)
